This note sets out measurements from patent EP1053001B1 (AMYLIN PHARMACEUTICALS, INC., dated 2010).

No end group written: not given here.

The target in assay [1] is T1, calcitonin receptors (human T47D / MCF7 breast carcinoma cells) (human, UniProt P30988 25-474).
T1 sequence (looked up): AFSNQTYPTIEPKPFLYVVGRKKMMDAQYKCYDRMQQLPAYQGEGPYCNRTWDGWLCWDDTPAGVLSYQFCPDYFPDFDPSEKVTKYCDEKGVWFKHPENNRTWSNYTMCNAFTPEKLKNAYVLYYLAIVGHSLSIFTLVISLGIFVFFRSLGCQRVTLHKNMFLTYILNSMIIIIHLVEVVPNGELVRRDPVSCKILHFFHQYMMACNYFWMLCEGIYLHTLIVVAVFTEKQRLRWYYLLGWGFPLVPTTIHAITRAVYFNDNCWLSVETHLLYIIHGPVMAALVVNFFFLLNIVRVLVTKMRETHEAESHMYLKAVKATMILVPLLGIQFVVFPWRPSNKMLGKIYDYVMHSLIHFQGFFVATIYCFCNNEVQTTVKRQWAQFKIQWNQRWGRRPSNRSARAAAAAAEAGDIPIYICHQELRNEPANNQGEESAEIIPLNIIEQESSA
Description: cell-based or functional assay.

Assay [2] has as its target T2, rat calcitonin C1a receptor (rat, UniProt P32214 25-516).
T2 sequence (looked up): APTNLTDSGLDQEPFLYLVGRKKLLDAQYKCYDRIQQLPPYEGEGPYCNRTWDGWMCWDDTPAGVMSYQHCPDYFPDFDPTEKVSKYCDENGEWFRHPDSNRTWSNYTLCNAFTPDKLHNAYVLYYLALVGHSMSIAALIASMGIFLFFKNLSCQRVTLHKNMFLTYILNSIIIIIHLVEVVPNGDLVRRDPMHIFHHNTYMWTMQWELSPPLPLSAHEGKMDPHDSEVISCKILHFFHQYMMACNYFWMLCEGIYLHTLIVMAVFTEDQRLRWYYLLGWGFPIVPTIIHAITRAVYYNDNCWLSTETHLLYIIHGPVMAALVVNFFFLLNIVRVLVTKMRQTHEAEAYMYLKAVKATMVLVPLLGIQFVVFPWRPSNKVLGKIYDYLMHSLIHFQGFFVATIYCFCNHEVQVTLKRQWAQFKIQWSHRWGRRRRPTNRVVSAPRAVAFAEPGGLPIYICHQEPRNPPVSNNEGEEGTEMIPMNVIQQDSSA
Kind of assay: cell-based or functional assay.

Assay [3] addresses T3, amylin receptors (rat nucleus accumbens membranes) (rat).
T3 construct: Assayed as a tissue membrane preparation, not on intact cells; also called amylin (nucleus accumbens) receptors
Description: radioligand competition vs 125I-BH-rat amylin, rat nucleus accumbens membranes.

B1: Compound 6 (peptide)
peptide: XLSTAVLGRLSQELHRLQTYPRTNTGSNTY
modifications: acetylated with acetic anhydride (site not given)
Consider B1, for which the “fold lower potency than human calcitonin, adenylyl cyclase, MCF7-7 cells” value in assay [1] was determined as 80 fold.

B2: Compound 1 (peptide)
peptide: LSTCVLGRLSQELHRLQTYPRTNTGSNTY
modifications: not fully specified
B2: the “EC50 of adenyl cyclase stimulation, HEK293 cells stably transfected with rat calcitonin C1a receptor” value in assay [2] is 0.97 nM.

B3: Compound 5 (peptide)
peptide: LSTSVLGRLSQELHRLQTYPRTNTGSNTY-NH2
On to B3, for which the IC50 in assay [3] was determined as 0.092 nM.

B4: Compound 4 (peptide)
peptide: LSTAVLGRLSQELHRLQTYPRTNTGSNTY-NH2
modifications: not fully specified
In turn, B4 returned an IC50 in assay [3] of 0.066 nM.
